The data set is described as follows: soluble on expression in E. coli; label from the status in PepcDB or PDB records.
As for “MPRRALGWTAEVLKRLHGINYPITKDTLREKLAGMSIRGVPVERVIDEIEVDKFDTPRDVLHYIAEAVHKLEERGEIPTETRKGIRWAAEVLKRIHGEHFPMDKQKLKEKLAGLYWRGVPIEKVIDAMEVEQVESPADLLHQLSIAIKKLEEQGEVA”, the “soluble on expression in E. coli” value is reported as “not soluble”.
Next, “MPRRPGTPRGPQGGRRLLVISASMGAGHDTVAAELVRRARERGDTAQTVDVLALLPYGLGAVLRCFYRGSVRHFPWAYAALYRLFLRPGAGRRPSGTPLARLAGDRLRELAARTGADVVVPVFHLGAQLTGHLRDRGLLPVPSVVLVIDFELHRQWLHPGNDHCLCLTEEAAREARGNTGTPAETCGPVVAPEFSAGRVPGAAQWRETFDRLGPGRPAVVLSAGAWGVGSHLDATVRLLVDHGYLPVVLCGDNQRLRRTLSGTPGVLALGWVTDMPGLLHAARALIDNAAGQTAVQALAAGLPVVGHRPIPGHGADGVRRMAALGVSEVAEDRTALLEALARLTAPGPDRRRRIAAGRALFTGNADALTLVTDLADAARADVRRLEHHHHHH”: “not soluble”; “MPRYIVRPFHLLNLPTVVISEVLNHLKNIDICILRTTSRKIRTIGKLSARRKQTYLVGHRRLDLTINARFGKFKVESGARDGTVALYAGYDINRVLDITSDFFDYLDIYIYLYIIDNHSDKDAKKLVEVIVTKGIYVHYLRFDGEQISHELFREMLKCDVNELRIHLRTQHTVELSDIDLMVSCKCVALTRITIPSDYLNVLLKKWQANRNLTFFSASGMALTLDKSIILEGTNSEQGSEEYNFYIKCNNRKTALLKILHNSFRLGNVY”: “not soluble”.
In the case of “MPRYTESEWLTDFIIDALDSGRFWGVGWLDEQKRIFTVPGRNRRERMPEGFDDFYEAFLEERRRHGLPEIPETETGLGCFGRLLRTANRARQERPFTIYKGKMKLNRWIMTPRPYKGCEGCLVYLTQEPAMKNMLKALFGIYPHDDKHREKALRRSLRKKAQRREAARKQAAAVATPTTSSAAEVSSRSQSEDTESSDSENELWVGAQGFVGRDMHSLFFEEPEPSGFGSSGQSSSLLAPDSPRPSTSQVQGPLHVHTPTDLCLPTGGLPSPVIFPHETQGLLAPPAGQSQTPFSPEGPVPSHVSGLDDCLPMVDHIEGCLLDLLSDVGQELPDLGDLGELLCETASPQGPMQSEGGEEGSTESVSVLPATHPLESSAPGASVMGSGQELPDLGDLSELLCETASPQGPMQSEGGEEGSTESVSVLPATHPLESSAPGASVMGSSFQASDNVDDFIDCIPPLCRDDRDVEDQEKADQTFYWYGSDMRPKVLTATQSVAAYLSKKQAIYKVGDKLVPLVVEVYYFGEKVKTHFDLTGGIVICSQVPEASPEHICQTVPPYKCLLPRTAHCSVDANRTLEQTLDRFSMGVVAIGTNMGIFLKGLLEYPAYFVGNASRRRIGKCRPLSHRHEIQQAFDVERHNREPEGSRYASLFLGRRPSPEYDSDHYPVILHIYLAPFYHRD” it was “not soluble”; in that of “MPSGAEFTRDERQLNQHENPNDAMSDDNSHSSDTVNSKKGFFSLLLSQLFHGEPKNRDELLALIRDSGQNDLIDEDTRDMLEGVMDIADQRVRDIMIPRSQMITLKRNQTLDECLDVIIESAHSRFPVISEDKDHIEGILMAKDLLPFMRSDAEAFSMEKVLRPAVVVPESKRVDRMLKEFRSQRYHMAIVIDEFGGVSGLVTIEDILELIVGEIEDEYDEEEDIDFRQLSRHTWTVRALASIEDFNDAFDTHFSDEEVDTIGGLVMQAFGHLPARGESIDIDGYQFKVAMADSRRIIQVHVKLPDDAPQPKLEE”, “not soluble”; in that of “MPSIRLADLAQQLDAELHGDGDIVITGVASMQSAQTGHITFMVNPKYREHLGLCQASAVVMTQDDLPFAKSAALVVKNPYLTYARMAQILDTTPQPAQNIAPSAVIDATAKLGNNVSIGANAVIESGVELGDNVIIGAGCFVGKNSKIGAGSRLWANVTIYHEIQIGQNCLIQSGTVVGADGFGYANDRGNWVKIPQIGRVIIGDRVEIGACTTIDRGALDDTVIGNGVIIDNQCQIAHNVVIGDNTAVAGGVIMAGSLKIGRYCMIGGASVINGHMEICDKVTVTGMGMVMRPITEPGVYSSGIPLQPNKVWRKTAALVMNIDDMSKRLKSLERKVNQQD”, “not soluble”.
As for “MPSIRVVNLKKYFGKVKAVDGVSFEVKDGEFVALLGPSGCGKTTTLLMLAGIYKPTSGEIYFDDVLVNDIPPKYREVGMVFQNYALYPHMTVFENIAFPLRARRISKDEVEKRVVEIARKLLIDNLLDRKPTQLSGGQQQRVALARALVKQPKVLLFDEPLSNLDANLRMIMRAEIKHLQQELGITSVYVTHDQAEAMTMASRIAVFNQGKLVQYGTPDEVYDSPKNMFVASFIGNPPTNFLRDFSVSVENKQTILKRDDVIIKLPEPVDVKLKEVVVGIRPEHCRISRERVENSIPGVVYVVEPLGRDIIVNVKTEKGEIIKVFGDTGKAPQPGENVFLVPDLRKIHLFNPETEETIL”, the “soluble on expression in E. coli” value is on record as “soluble”.
Take “MPSSKTSARRAPSSPGASLWSLPLIRKLCCAPGCEELAPAGQAHCADHAAEAEARARSRKARAKAGAAAQAGAAFYATGRWRRARARFLAAHPLCADCAGLGLVVAAAEVDHIRPHRGDPGLMWDRANWQPLCRPCHSRKTAREVFHPPGGIAKSEGSARLEHHHHHH”: the “soluble on expression in E. coli” value is recorded as “not soluble”.
Turning to “MPSYKLTYFFFRGLGEPIRLLFHLAGVQFEEVRMNPDQTWLDIKDSTPMKQLPVLNIDGFELPQSGAILRYLARKFGFAGKTPEEEAWVDAVHDLFKDFLAEFKKFAAERRSGKSAEEVEKFRSEFFLPARNTYFNILNGLLEKSNSGFLIGSDITFADLVVVDNLLTLKNYGLFDESEFTKLAALREKVNSYPGIKEYIAKRPVTEY”, the “soluble on expression in E. coli” value was “soluble”.
In the case of “MPSYTVTVATGSQWFAGTDDYIYLSLVGSAGCSEKHLLDKPFYNDFERGAVDSYDVTVDEELGEIQLVRIEKRKYWLNDDWYLKYITLKTPHGDYIEFPCYRWITGDVEVVLRDGRAKLARDDQIHILKQHRLKELETRQKQYRWMEWNPGFPLSIDAKCHKDLPRDIQFDSEKGVDFVLNYSKAMENLFINRFMHMFQSSWNDFADFEKIFVKISNTISERVMNHWQEDLMFGYQFLNGCNPVLIRRCTELPEKLPVTTEMVECSLERQLSLEQEVQQGNIFIVDFELLDGIDANKTDPCTLQFLAAPICLLYKNLANKIVPIAIQLNQIPGDENPIFLPSDAKYDWLLAKIWVRSSDFHVHQTITHLLRTHLVSEVFGIAMYRQLPAVHPIFKLLVAHVRFTIAINTKAREQLICECGLFDKANATGGGGHVQMVQRAMKDLTYASLCFPEAIKARGMESKEDIPYYFYRDDGLLVWEAIRTFTAEVVDIYYEGDQVVEEDPELQDFVNDVYVYGMRGRKSSGFPKSVKSREQLSEYLTVVIFTASAQHAAVNFGQYDWCSWIPNAPPTMRAPPPTAKGVVTIEQIVDTLPDRGRSCWHLGAVWALSQFQENELFLGMYPEEHFIEKPVKEAMARFRKNLEAIVSVIAERNKKKQLPYYYLSPDRIPNSVAI” it was “soluble”; in that of “MPTVSVKRDLLFQALGRTYTDEEFDELCFEFGLELDEITSEKEIISKEQGNVKAAGASDVVLYKIDVPANRYDLLCLEGLVRGLQVFKERIKAPVYKRVMPDGKIQKLIITEETAKIRPFAVAAVLRNIKFTKDRYDSFIELQEKLHQNICRKRALVAIGTHDLDTLSGPFTYTAKRPSDIKFKPLNKTKEYTACELMNIYKTDNHLKHYLHIIENKPLYPVIYDSNGVVLSMPPIINGDHSRITVNTRNIFIECTGTDFTKAKIVLDIIVTMFSEYCENQFTVEAAEVVFPNGKSHTFPELAYRKEMVRADLINKKVGIRETPENLAKLLTRMYLKSEVIGDGNQIEIEIPPTRADIIHACDIVEDAAIAYGYNNIQMTLPKTYTIANQFPLNKLTELLRHDMAAAGFTEALTFALCSQEDIADKLGVDISATKAVHISNPKTAEFQVARTTLLPGLLKTIAANRKMPLPLKLFEISDIVIKDSNTDVGAKNYRHLCAVYYNKNPGFEIIHGLLDRIMQLLDVPPGEDKGGYVIKASEGPAFFPGRCAEIFARGQSVGKLGVLHPDVITKFELTMPCSSLEINIGPFL”, “soluble”; in that of “MPTYKLTYFNARGYAEAARILFHLADVPFEDFRMTHGDGTWEKLKDGAPFGQVPYLTVDGFDIPQSAAIIRYLANKFGYAGKTPEEQVWADAIVDQFKDFMGSFRERIMAHFAGKSQEEIAKITSEVVIPARDSYFKILNGLLEKSKSGFLVGDSITFADIVISENITTLEKNQLFVASEQPNLAALREKVYAIPAIRKWVEARPDTQY”, “not soluble”.
Next, “MPVDLSKWSGPLSLQEVDEQPQHPLHVTYAGAAVDELGKVLTPTQVKNRPTSISWDGLDSGKLYTLVLTDPDAPSRKDPKYREWHHFLVVNMKGNDISSGTVLSDYVGSGPPKGTGLHRYVWLVYEQDRPLKCDEPILSNRSGDHRGKFKVASFRKKYELRAPVAGTCYQAEWDDYVPKLYEQLSGK”: “soluble”; “MPVETREISVTAKEDCGIVDITGIVSEEVEKSEIKNGTVTVFCVGSTGAISTMEFESNLSKDISEILDKLIPLNEDYHHHKTWGDFNGGSHLRSFLLGPSLTVPFVEKKLTLGTWQQIVYINFDRIEKVRKIVLQIIGDLLEHHHHHH”: “soluble”; “MPVINVKDDEDFRNQLSLAGLKSVIVDFTAVWCGPCKMIAPTFEALSNQYLGAVFLKVDVEICEKTSSENGVNSMPTFMVFQSGVRVEQMKGADAKALETMVKKYADNSAADSLVAGQMDLTPLVDKKQMECLNESDDTPLGRFLEGNCNLVSDCDEQLIISLPFNQPVKVHSILIKGVSDRAPKKVKVFINLPKTTDFDNATALEPTQMLEFDESSIQGHGQVVALKYVKFQNVQNIQFFIENNVGGGDVTELVKLTVFGTPLSALNMNEFKRVAGKAGDAAH”: “not soluble”.
For “MPYIEKLELKGFKSYGNKKVVIPFSKGFTAIVGANGSGKSNIGDAILFVLGGLSAKAMRASRISDLIFAGSKNEPPAKYAEVAIYFNNEDRGFPIDEDEVVIRRRVYPDGRSSYWLNGRRATRSEILDILTAAMISPDGYNIVLQGDITKFIKMSPLERRLLIDDISGIAEYDSKKEKALEE”, the “soluble on expression in E. coli” value is reported as “soluble”.
Take “MQAGKPILYSYFRSSCSWRVRIALALKGIDYKTVPINLIKDGGQQFSKDFQALNPMKQVPTLKIDGITIHQSLAIIEYLEETRPTPRLLPQDPKKRASVRMISDLIAGGIQPLQNLSVLKQVGEEMQLTWAQNAITCGFNALEQILQSTAGIYCVGDEVTMADLCLVPQVANAERFKVDLTPYPTISSINKRLLVLEAFQVSHPCRQPDTPTELRA”: the “soluble on expression in E. coli” value was “soluble”.
In the case of “MQAGPALMSEVASRELRNDTAGVLRRVRAGEDVTITVSGRPVAVLTPVRPRRRRWLSKTEFLSRLRGAQADPGLRNDLAVLAGDTTEDLGPIR” it was “soluble”; in that of “MQAVSVDETKNTVVLRAEHKNEEGRKSVDKFEVKTRNPETIKSVERKLMEKGVQRMDRHPSDGIPLRRPPSKSGHGGKYTWEGPDRMEDYEMQPDPPAMDEGDPNYDEEQVKKSGDDVAVELVKGEVEVAKEAPAGVARVEVDPRLVGR”, “soluble”.
In the case of “MQAYFDQLDRVRYEGPQSTNPLAFRHYNPDELVLGKRMEDHLRFAACYWHTFCWNGADMFGVGAFNRPWQQPGEALELAKRKADVAFEFFHKLNVPFYCFHDVDVSPEGASLKEYKNNFAQMVDVLAAKQEQSGVKLLWGTANCFTNPRYGAGAATNPDPEVFSWAATQVVTAMNATHKLGGENYVLWGGREGYETLLNTDLRQEREQIGRFMQMVVEHKHKMGFQGTLLIEPKPQEPTKHQYDYDVATVYGFLKQFGLEKEIKVNIEANHATLAGHSFHHEIATAIALGIFGSVDANRGDAQLGWDTDQFPISVEENALVMYEILKAGGFTTGGLNFDAKVRRQSTDKYDLFYGHIGAMDTMALSLKIAARMVEDGELDKRVAKRYAGWNGELGQQILKGQLSLGELAQYAEQHNLAPVHQSGHQELLENLVNRYLFDK”, the “soluble on expression in E. coli” value is recorded as “not soluble”.

(Values after the DeepSol protein solubility set.)
